In series [1] the target is PJ-8 (positive control peptide).
The target in series [2] is PP-2b (positive control peptide).
The target of series [3] is candidate peptide No. 11 (hIFN-gamma positions 126-139), 5-carboxyfluorescein labelled.
Series [4] has as its target candidate peptide No. 15 (mIFN-gamma positions 128-141), 5-carboxyfluorescein labelled.
Series [5] concerns the target candidate peptide No. 16 (mIFN-gamma positions 143-154), 5-carboxyfluorescein labelled.
The target of series [6] is candidate peptide No. 17 (mCXCL-1 positions 1-14, Cys replaced with Ser), 5-carboxyfluorescein labelled.
Series [7] deals with candidate peptide No. 19 (hCXCL-7 positions 76-89), 5-carboxyfluorescein labelled.
Series [8] addresses candidate peptide No. 2 (hCCL-14 positions 61-74), 5-carboxyfluorescein labelled.
The target in series [9] is candidate peptide No. 20 (hCXCL-3 positions 1-14, Cys replaced with Ser), 5-carboxyfluorescein labelled.
Series [10] has as its target candidate peptide No. 22 (hCXCL-5 positions 3-15, Cys replaced with Ser), 5-carboxyfluorescein labelled.
Series [11] concerns the target candidate peptide No. 4 (hIFN-alpha-10 positions 150-161), 5-carboxyfluorescein labelled.
For series [12], the target named is candidate peptide No. 5 (hIFN-alpha-6 positions 154-165), 5-carboxyfluorescein labelled.
Series [13] deals with candidate peptide No. 6 (hIFN-alpha-6 positions 150-161), 5-carboxyfluorescein labelled.
In series [14] the target is candidate peptide No. 7 (hIFN-alpha-2 positions 154-165), 5-carboxyfluorescein labelled.

B1: human MMP12 (matrix metalloproteinase 12), activated with APMA (protein)
chain: GPVWRKHYITYRINNYTPDMNREDVDYAIRKAFQVWSNVTPLKFSKINTGMADILVVFARGAHGDFHAFDGKGGILAHAFGPGSGIGGDAHFDEDEFWTTHSGGTNLFLTAVHEIGHSLGLGHSSDPKAVMFPTYKYVDINTFRLSADDIRGIQSLYGDPKENQRLPNPDNSEPALCDPNLSFDAVTTVGNKIFFFKDRFFWLKVSERPKTSVNLISSLWPTLPSGIEAAYEIEARNQVFLFKDDKYWLISNLRPEPNYPKSIHSFGFPNFVKKIDAAVFNPRFYRTYFFVDNQYWRYDERRQMMDPGYPKLITKNFQGIGPKIDAVFYSKNKYYYFFQGSNQFEYDFLLQRITKTLKSNSWFGC
Turning to B1, the “cleavage by MMP12 (UPLC)” value in series [1] and in [2] was “it was confirmed that the two positive controls were cleaved by MMP12 (data is not shown)” in each case. Moreover, the Cleavage rate (%) in [3] was 100%; in [4], 10.5%; in series [5], 61.7%; in series [6], 98.6%; in series [7], 26%; in series [8], 56%. Moreover, the Cleavage rate (%) in series [9] turned out to be 100%; in series [10], 100%; in series [11] it was 53.5%; in [12], 38.5%; in series [13], 90.3%; in series [14], 70.4%.

Values taken from patent publication US20260153518.
